{"source": "patent US20250297018A1", "about": "“IL-18BP ANTAGONIST ANTIBODIES AND THEIR USE IN MONOTHERAPY AND COMBINATION THERAPY IN THE TREATMENT OF CANCER” (Compugen Ltd., priority 2022, published 2025)", "key": {"IL18": {"molecular_target": "T1, IL18 (Homo sapiens, UniProt Q14116)", "T1 sequence (Q14116 37-193)": "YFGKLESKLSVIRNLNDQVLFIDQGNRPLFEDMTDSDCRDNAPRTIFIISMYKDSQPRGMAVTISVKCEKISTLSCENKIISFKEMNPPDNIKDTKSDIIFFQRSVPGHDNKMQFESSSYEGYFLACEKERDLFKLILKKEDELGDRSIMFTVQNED", "details": "Kim et al., PNAS 2000; read-out: Dissociation constant (Kd) for IL18; cited from earlier work"}, "[1]": {"test": "MC38ova tumor-bearing mice treated with anti-mIL18BP or engineered mIL-18: weight, serum cytokines, spleen", "assay_type": "in vivo, mouse", "details": "spleens harvested 24 hours after the 4th treatment (IL-15: single dose), vs control", "description": "Experiments were performed in C57Bl/6 (female, 6-8 wk, Envigo). Mice were anesthetized with 10% Ketamine and 10% Xylazine mixture injected intraperitoneal. Next, mice were inoculated with MC38ova cells (1.2×10^6) subcutaneously to the right flank in 50 μl/mice.\nSpleens were harvested from mice 24 hours after the 4th treatment and weighed. For IL15 experiments, mice were treated with a single dose of 0.5 μg, 1.5 μg of IL15, or with a mix of 0.5 μg IL15 and 2.33 μg IL15R."}, "endogenous IL-18BP": {"molecular_target": "T2, endogenous IL-18BP (Homo sapiens, UniProt O95998)", "T2 construct": "endogenous in cells; host or cells: MEL624 cells co-cultured with human TILs", "T2 sequence (O95998 31-194)": "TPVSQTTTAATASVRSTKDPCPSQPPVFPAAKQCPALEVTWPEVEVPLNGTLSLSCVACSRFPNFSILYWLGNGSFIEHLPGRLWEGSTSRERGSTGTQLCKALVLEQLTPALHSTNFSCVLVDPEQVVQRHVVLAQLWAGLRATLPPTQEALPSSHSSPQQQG", "test": "MEL624:TIL co-culture with endogenous IL-18BP levels, IFNg release", "assay_type": "cell-based", "details": "IL-18 3.7 ng/ml, 5 μg/ml antibody, 18 hours, vs isotype", "description": "A. Schematic representation of assay setup. MEL624 cells were co-cultured with human TILs that were previously enriched for MARTI or gp100 peptide-specific clones. IL-18 (3.7 ng/ml) was added to the co-culture along with 5 μg/ml ADI-71739 or isotype control. The co-culture was set for 18 hours following which IFNg levels were measured in supernatants. B. IFNg levels were increased in co-cultures treated with ADI-71739 (turquoise) as compared with isotype-treated samples (black). Representative examples from two TIL donors are shown."}, "MEL624 cells": {"system": "MEL624 cells", "test": "Killing of MEL624 melanoma cells by human TILs (IncuCyte)", "assay_type": "cell-based", "details": "rhIL-18 50 ng/ml + rhIL-18BP 1 μg/ml, 10 μg/ml antibody, 72 hours", "description": "MEL624 cells were co-cultured with human TILs that were previously enriched for MARTI or gp100 peptide-specific clones. rhIL-18 (R&D systems, 50 ng/ml) and rhIL-18BP (R&D systems, 1 μg/ml) were added to the co-culture for 30 minutes to allow the formation of IL-18:IL-18BP complex prior to treatment with 10 μg/ml ADI-71739 or isotype control. The co-culture was monitored for 72 hours using an IncuCyte live cell imaging instrument. […] In the presence of the isotype control antibody (black), IL-18BP abrogated the effects of IL-18, while the anti-IL-18BP antibody (turquoise) was able to completely restore these effects."}, "[2]": {"molecular_target": "T3, recombinant human IL18-BP (Homo sapiens, UniProt O95998)", "T3 construct": "purchased R&D systems 119-BP; host or cells: added to MEL624/PD-L1 + CMV-reactive T-cell culture", "T3 sequence (O95998 31-194)": "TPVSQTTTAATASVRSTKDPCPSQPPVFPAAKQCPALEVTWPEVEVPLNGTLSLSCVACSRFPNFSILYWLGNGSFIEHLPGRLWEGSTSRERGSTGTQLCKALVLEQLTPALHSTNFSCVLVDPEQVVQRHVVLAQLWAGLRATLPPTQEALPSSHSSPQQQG", "test": "CMV recall assay, IFNγ secretion by CMV-reactive T-cells", "assay_type": "cell-based", "details": "rhIL-18 30 ng/ml + rhIL-18BP 2 μg/ml; antibodies 10 μg/ml", "description": "Human MEL-624 overexpressing PD-L1 cells were thawed and loaded with CMV pp65 peptide (0.03 μg/ml). The cells were seeded at 100K/well in a 96 well plate and incubated for 30 minutes in 37° C., 5% CO2 incubator with a combination rhIL-18 (30 ng/ml, R&D systems, 9124-IL/CF) and rhIL-18BP-Fc chimeric protein ([…], R&D systems 119-BP) to allow IL-18+IL-18BP complex formation. After 30 minutes, anti-human IL-18BP (ADI-71722, anti-human PVRIG, anti-human TIGIT (anti-TIGIT), anti-human PD1 (Pembrolizumab) or relevant isotype control (hIgG4) were added to the culture to examine their capability to restore IL-18 activity. All antibodies were added to a final concentration of 10 μg/ml. 30 minutes post incubation with antibodies, thawed CMV-reactive T-cells were added to the culture. Cells and all added solutions were prepared in full IMDM (IMDM media with 10% human serum, 1% Glutamax, 1% MEM eagle, 1% sodium pyruvate, and 1% Penicillin-Streptomycin Solution) to a final volume of 200 μl/well. Plates were incubated for 24 hours in 37° C., 5% CO2 incubator, after which the supernatant was collected for IFNγ secretion evaluation. All tests were done in triplicates and each repeated with three donors.\nMEL624 cells that overexpress PD-L1 were loaded with CMV peptide pp65. […] CMV-specific T-cells were then added to the culture and IFNg secretion was measured after an overnight incubation."}, "[3]": {"molecular_target": "T3, recombinant human IL18-BP", "test": "MEL624:TIL assay, IFNγ secretion", "assay_type": "cell-based", "details": "rhIL-18 30 ng/ml + rhIL-18BP 1 μg/ml, 24 h, vs isotype control", "description": "Human MEL624 cells were thawed and grown in DMEM with 10% FBS, 1% Glutamax, 1% Penicillin-Streptomycin Solution and 1% HEPES buffer. The cells were then seeded at 75 k cells/well in a 96 well plate in the assay medium (IMDM with 10% human serum, 1% Glutamax, 1% MEM eagle, 1% Sodium Pyruvate and 1% Penicillin-Streptomycin Solution) and incubated 1 hour in 37° C., 5% CO2 incubator before co-culture with human tumor infiltrating lymphocytes that were previously expanded using known melanoma antigens (TILs). Human TILs were thawed in full TIL media and 75 k cells/well were co-cultured with the MEL624 cells to create an effector:target ratio of 1:1. The co-cultured cells were then treated with rhIL-18 (30 ng/ml) and rhIL-18BP (1 μg/ml) for 30 min in 37° C., 5% CO2 incubator to allow IL-18:IL-18BP complex formation. After 30 minutes, anti-human IL-18BP mAb (ADI-71722, dose titration, 30 μg/ml-0.01 μg/ml, dilution factor of 1:3) or relevant isotype control (hIgG1 30 μg/ml) were added to the co-culture to examine its capability to restore IL-18 activity. Cells and all added solutions were prepared in full assay medium to a final volume of 200 μl/well. Plates were incubated for 24 hours in 37° C., 5% CO2 incubator, after which the supernatant was collected for cytokine secretion evaluation. […]\nWhere applicable, the EC50 value was calculated using GraphPad Prism software."}, "human whole blood": {"system": "human whole blood", "test": "Whole blood loop assay (ID.Flow)", "assay_type": "cell-based", "details": "ex vivo whole blood loop, six healthy volunteers, 24 hr", "description": "Flow, an ex vivo system that mimics the human blood circulation. Fresh whole blood was taken from six healthy volunteers and immediately transferred to a whole blood loop system. The test items were administered, and the blood was set to circulate at 37° C. to prevent clotting. Blood samples collected at the 24 hr time point were analyzed for hematology and flow cytometry parameters and then processed to plasma for cytokine analysis. The anti-CD52 antibody Alemtuzumab was included as a reference antibody with manageable cytokine release in the clinic."}}}
{"molecule": "IL18-BPa: most abundant human IL18-BP isoform, isoform a", "values": [{"measurement": "Kd", "setting": "IL18", "value": "~0.4", "unit": "nM"}]}
{"molecule": "IL-15: IL15 given as single dose of 0.5 μg or 1.5 μg, or mixed with IL15R [reference compound]", "values": [{"measurement": "Spleen size", "setting": "[1]", "value": "larger than controls"}]}
{"molecule": "ADI-71739: anti-IL18-BP antibody, VH SEQ ID NO: 154, VL SEQ ID NO: 159 (FIG. 2K), 66716 lineage (antibody, V domains shown) VH: QLQLQESGPGLVKPSETLSLTCTVSGGSISSPDYPWGWIRQPPGKGLEWIGSIYYQGATYYNPSLKSRVTISVDTSKNQFSLKLSSVTAADTAVYYCARGPYRQLFDYWGQGTLVTVSS VL: DIQMTQSPSSVSASVGDRVTITCRASQGISSWLAWYQQKPGKAPKLLIYAASSLQSGVPSRFSGSGSGTDFTLTISSLQPEDFATYYCQQGSVFPYTFGGGTKVEIK", "values": [{"measurement": "IFNg release by tumor infiltrating lymphocytes", "setting": "endogenous IL-18BP", "value": "increased IFNg release by tumor infiltrating lymphocytes"}, {"measurement": "Killing of melanoma cells by tumor infiltrating lymphocytes", "setting": "MEL624 cells", "value": "increased killing of melanoma cells by tumor infiltrating lymphocytes"}, {"measurement": "IFNγ secretion by CMV-reactive T-cells", "setting": "[2]", "value": "increase IFNγ secretion by the T cells"}, {"measurement": "IFNγ secretion from TILs", "setting": "[3]", "value": "increase IFNγ secretion from TILs compared to isotype control"}]}
{"molecule": "ADI-71722: anti-IL18-BP antibody, VH SEQ ID NO: 84, VL SEQ ID NO: 89 (FIG. 2D), 66670 lineage (antibody, V domains shown) VH: QVQLVQSGAEVKKPGSSVKVSCKASGGTFSEYPISWVRQAPGQGLEWMGGIIPGAGTAIYAQKFQGRVTITADESTSTAYMELSSLRSEDTAVYYCARGRHFHETWGQGTLVTVSS VL: DIQMTQSPSSVSASVGDRVTITCRASQGISSWLAWYQQKPGKAPKLLIYAASSLQSGVPSRFSGSGSGTDFTLTISSLQPEDFATYYCQQVYRFPWTFGGGTKVEIK", "values": [{"measurement": "IFNγ secretion by CMV-reactive T-cells", "setting": "[2]", "value": "fully restore IFNγ secretion"}]}
{"molecule": "ADI-71709: anti-IL18-BP antibody, VH SEQ ID NO: 54, VL SEQ ID NO: 59 (FIG. 2A), 66650 lineage (antibody, V domains shown) VH: QVQLVQSGAEVKKPGASVKVSCEASGYTFDIYAVHWVRQAPGQRLEWMGWIHAGTGATKYSQKFQGRVTITRDTSASTAYMELSSLRSEDTAVYYCARGLGEVGPTGTSWFDPWGQGTLVTVSS VL: DIQMTQSPSTLSASVGDRVTITCRASQSISSWLAWYQQKPGKAPKLLIYEASSLESGVPLRFSGSGSGTEFTLTISSLQPDDFATYYCQQYRQSPFTFGGGTKVEIK", "values": [{"measurement": "Signs of systemic immune activation", "setting": "human whole blood", "value": "did not show signs of systemic immune activation"}]}
